From patent US20190021294A1 (WAKE FOREST UNIVERSITY HEALTH SCIENCES, published 2019)

Biological target: the molecule itself
Experiment: X-ray crystal structure of the TREX1 D18N-dsDNA complex (homodimer of protomers)
Description: Structure Determination. The mouse recombinant Trex1 enzyme (amino acids 1-242) was prepared and crystallized with a dsDNA oligonucleotide. The X-ray data were collected and processed as described further below.
Protein Crystallization and X-ray Data Collection. The TREX1 D18N mutant was crystallized using the sitting drop vapor diffusion technique. The protein was dialyzed in 20 mM MES (pH 6.5), 50 mM NaCl and concentrated to 10 mg/mL. The pseudo-palindromic oligonucleotide DNA used for crystallization (5′-[…]-3′ (SEQ ID NO:1, Operon)) was self-annealed in buffer consisting of 20 mM NaCl, 5 mM MgCl₂, and 5 mM MES, pH 6.5. The complex was formed by incubating dsDNA with the protein in a 1:1 ratio and 5 mM magnesium chloride. A volume of 1 μl protein complex at 4 mg/ml TREX1 was mixed with an equal volume of reservoir solution and placed on a bridge above 500 μl of the reservoir solution. Optimized crystals of the TREX1 D18N mutant grew in 0.1 M sodium acetate and 9% PEG 4000 at 25° C. Prior to data collection all crystals were immersed in reservoir solution containing 10% oil (1:1 mineral oil and pantone-N) in preparation for cryo-cooling. Crystals were mounted on a nylon loop and flash cooled to 100 K in a stream of liquid nitrogen.

B1: mouse recombinant TREX1 D18N enzyme (amino acids 1-242) (enzyme, Mus musculus, UniProt Q91XB0 1-242, looked up)
chain: MGSQTLPHGHMQTLIFLNLEATGLPSSRPEVTELCLLAVHRRALENTSISQGHPPPVPRPPRVVDKLSLCIAPGKACSPGASEITGLSKAELEVQGRQRFDDNLAILLRAFLQRQPQPCCLVAHNGDRYDFPLLQTELARLSTPSPLDGTFCVDSIAALKALEQASSPSGNGSRKSYSLGSIYTRLYWQAPTDSHTAEGDVLTLLSICQWKPQALLQWVDEHARPFSTVKPMYGTPATTGTT
notes: range 1-242; Written as one protomer, because the entry is the protomer-protomer association; also called TREX1 D18N mutant; TREX1 D18N protomer
  binding result: binds
